Changes are numbered by the printed parent chain. Numbers in names are those of the source.
How the values were obtained:
Test in all cases: purified protein
Type in all cases: biochemical, Falsihalocynthiibacter arcticus
Details in all cases: free enzyme, 20 mM Tris-HCl pH 8.0, 25 °C (standard assay)
purified protein [1] = substrate: CC(=O)Oc1ccc([N+](=O)[O-])cc1
purified protein [2] = substrate: CCCC(=O)Oc1ccc([N+](=O)[O-])cc1
purified protein [3] = substrate: CCCCCC(=O)Oc1ccc([N+](=O)[O-])cc1

B1: HaSGNH1 (Falsihalocynthiibacter arcticus) (protein)
chain: MSARVQAETVVIAALGDSLTQGYGLPQEDGLVAQLQGWLDENNHDIRLINAGVSGDTTAGGRSRIEWTLTPDVDAVIVELGGNDMMRGIAPSDSRKNLTEILEILQSRDLPVLLVGLPSANNFGPEFKAEFDDMFPALSTDFETLLYPDFFTSFRTKLNDTSALTTYMQDDAIHPNAKGVAAIVEDFGPLVVELAQQTQE
notes: ORF cloned from genomic DNA (primer starts ATG AGT GCT CGC GTT: MSARV), pET-21a, N-terminal His6 tag, E. coli BL21(DE3)
Purified protein [1]
  Km: 0.93 (± 0.15) mM
  Vmax: 29.4 µM/min
  kcat: 8.38 ± 0.53 s⁻¹
  kcat/Km: 8900 M⁻¹ s⁻¹
Purified protein [2]
  Km: 0.80 (± 0.23) mM
  Vmax: 60 µM/min
  kcat: 17.1 ± 1.83 s⁻¹
  kcat/Km: 21300 M⁻¹ s⁻¹
Purified protein [3]
  Km: 0.99 (± 0.20) mM
  Vmax: 57.6 µM/min
  kcat: 16.5 ± 1.45 s⁻¹
  kcat/Km: 16700 M⁻¹ s⁻¹

B2: HaSGNH1 (Falsihalocynthiibacter arcticus; R87L) (protein)
chain: B1 chain with R87L
notes: as for B1
Purified protein [2]
  Km: 0.68 (± 0.10) mM
  Vmax: 69 µM/min
  kcat: 15 ± 0.84 s⁻¹
  kcat/Km: 22200 M⁻¹ s⁻¹

B3: HaSGNH1 (Falsihalocynthiibacter arcticus; M86R) (protein)
chain: B1 chain with M86R
notes: as for B1
Purified protein [2]
  Km: 1.26 (± 0.17) mM
  Vmax: 46.8 µM/min
  kcat: 5.1 ± 0.35 s⁻¹
  kcat/Km: 4200 M⁻¹ s⁻¹

B4: HaSGNH1 (Falsihalocynthiibacter arcticus; M86E) (protein)
chain: B1 chain with M86E
notes: as for B1
Purified protein [2]
  Km: 1.06 (± 0.23) mM
  Vmax: 36.6 µM/min
  kcat: 4 ± 0.39 s⁻¹
  kcat/Km: 3800 M⁻¹ s⁻¹
